Laboratory results published in patent US20090029005A1.
“And” between values parts separate entries of the source, which are not always exact repeats. Equal values may be shown once.

The substances below were run against Angiotensin-I Converting Enzyme (ACE) (assay: cell-based or functional assay).

Chain of Ovotransferrin (TRFE_CHICK), not hydrolysed and not digested (P02789 20-705 limits assumed): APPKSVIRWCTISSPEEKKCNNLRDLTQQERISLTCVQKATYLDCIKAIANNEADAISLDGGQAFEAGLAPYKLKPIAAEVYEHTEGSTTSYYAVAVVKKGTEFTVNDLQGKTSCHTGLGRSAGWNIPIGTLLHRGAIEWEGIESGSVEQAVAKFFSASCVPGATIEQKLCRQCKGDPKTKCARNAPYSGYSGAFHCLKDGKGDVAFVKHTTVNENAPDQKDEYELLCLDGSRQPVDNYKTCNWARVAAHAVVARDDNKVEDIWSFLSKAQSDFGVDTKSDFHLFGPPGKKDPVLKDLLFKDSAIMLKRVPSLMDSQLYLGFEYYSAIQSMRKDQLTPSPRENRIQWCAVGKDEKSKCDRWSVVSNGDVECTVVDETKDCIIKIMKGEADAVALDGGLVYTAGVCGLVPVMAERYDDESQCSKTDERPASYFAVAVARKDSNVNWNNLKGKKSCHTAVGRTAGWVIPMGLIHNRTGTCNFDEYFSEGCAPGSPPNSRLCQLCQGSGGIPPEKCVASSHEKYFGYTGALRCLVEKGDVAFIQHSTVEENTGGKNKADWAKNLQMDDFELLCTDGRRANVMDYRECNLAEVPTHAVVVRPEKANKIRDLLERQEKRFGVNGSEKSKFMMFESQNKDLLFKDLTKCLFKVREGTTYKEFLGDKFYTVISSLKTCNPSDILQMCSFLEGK

| Substance | ACE inhibition (% inhibition) at 0.5 mg/ml | inhibition (%) at 0.0625 mg/ml | inhibition (%) at 0.125 mg/ml | inhibition (%) at 0.25 mg/ml | inhibition (%) at 0.5 mg/ml | inhibition (%) at 1 mg/ml | inhibition (%) at 2 mg/ml | ACE inhibition (%) at 0.167 mg/ml, Hip-His-Leu/TNBS microtiter assay | ACE inhibition (%) at 0.019 mg/ml, Hip-His-Leu/TNBS microtiter assay | ACE inhibition (%) at 0.056 mg/ml, Hip-His-Leu/TNBS microtiter assay |
| --- | --- | --- | --- | --- | --- | --- | --- | --- | --- | --- |
| Lysozyme/Protex 6L hydrolysate | 71% and 74% and 69% | 42.4% and 30.9% | 42.2% and 44.6% | 65.8% and 58.3% | 73.9% and 68.7% | 83% and 83.5% |  |  |  |  |
| EggWhite 1101/Promod 258P hydrolysate |  | 27.9% and 20% | 40.3% and 36.2% | 45% and 33.9% | 62.8% and 47.2% | 77.9% and 78.4% |  |  |  |  |
| Ovalbumin/Promod 258P hydrolysate | 53% and 49% and 58% | 14% and 8.7% | 40.7% and 23.2% | 37.3% and 33.8% | 48.6% and 57.6% | 87.5% and 67% | 103% and 78.2% |  |  |  |
| Lysozyme (Lysozyme C, LYC_CHICK), not hydrolysed and not digested (from UniProt P00698 19-147) (enzyme) |  |  |  |  |  |  |  | -4.7% |  |  |
| EggWhite 1102/Protex 6L hydrolysate |  | 16.3% and 4.9% | 24.7% and 19% | 33.2% and 41.7% | 47% and 49.2% | 58.4% and 66% | 60.2% and 71.8% |  |  |  |
| Lysozyme/Alcalase hydrolysate | 70% and 82% and 58% | 35.2% and 14.3% |  |  | 82.1% and 58.1% | 81.3% and 79.9% | 126% and 102% |  |  |  |
| Ovomucin/PEM hydrolysate |  | 25.9% and 5.5% | 13.3% and 9.1% | 41.1% and 19.6% and 36.1% | 66.3% and 43.1% and 48.6% | 51.3% and 62.3% and 66% | 73.1% and 78.1% and 88% |  |  |  |
| Egg yolk/Alcalase hydrolysate | 68% and 76% and 61% | 30.9% and 6.5% | 45.7% and 25.1% | 59.1% and 41.9% | 75.8% and 61% |  | 100% |  |  |  |
| Ovotransferrin/PTN hydrolysate | 64% and 68% and 60% |  | 28.3% and 37.9% | 51% and 49.8% | 67.8% and 59.9% | 80.3% and 84.3% |  |  |  |  |
| Egg yolk/PEM hydrolysate | 58% and 62% and 53% | 15.4% and 25.4% | 28.8% and 52.8% | 45.3% and 36.6% | 62.1% and 52.9% | 69.8% and 64.6% | 99.7% and 96.6% |  |  |  |
| Ovalbumin/PEM hydrolysate |  |  |  |  | 51.4% and 27.7% | 57.3% and 36.3% | 61% and 39.1% |  |  |  |
| Ovalbumin/Alcalase hydrolysate |  | 23.4% and 3.1% | 7.3% and 16.2% |  |  |  | 89.2% and 74.8% |  |  |  |
| Ovalbumin/Newlase F hydrolysate |  | 3.7% | 16.3% | 23.5% | 45.8% | 55.9% | 82.5% |  |  |  |
| Ovomucin/Newlase F hydrolysate |  | -13.7% and 7.8% |  | 30.6% and 18.6% | 42.5% and 31.3% | 45.7% and 49.2% | 59.6% and 49.2% |  |  |  |
| Lysozyme/PEM hydrolysate | 56% and 55% and 58% | 29.2% and 27.3% | 38% and 35.1% | 49.7% and 49.5% | 54.7% and 58% |  | 102% and 123% |  |  |  |
| EggWhite 1102/Promod 258P hydrolysate |  |  |  | 42.8% and 19.5% | 62% and 42.7% | 75% and 61.9% | 91.3% and 76.8% |  |  |  |
| Egg yolk/Protex 6L hydrolysate |  | 15% and 22.4% | 26.6% and 37% | 41.3% and 62.7% |  |  | 105% and 89.9% |  |  |  |
| Ovotransferrin (TRFE_CHICK), not hydrolysed and not digested (from UniProt P02789 20-705) |  |  |  |  |  |  |  | 0.7% | 0.7% | -4.1% |
| Ovomucin/PTN hydrolysate | 50% and 55% and 45% |  | 19.7% and 16.9% | 43.8% and 21% | 55.3% and 44.7% | 65.5% and 50.9% |  |  |  |  |
| Lysozyme/PTN hydrolysate | 52% and 62% and 42% | 18.9% and 6.4% |  |  | 62.4% and 42% | 75.7% and 75.8% | 79.7% and 103% |  |  |  |
| EggWhite 1101/Protex 6L hydrolysate |  | 17% and 11.9% | 20.2% and 23% | 31.3% and 33.3% | 50.6% and 44.4% | 63.2% and 62.2% |  |  |  |  |
| Ovotransferrin/Newlase F hydrolysate | 70% and 71% and 69% | 26.9% and 28.7% | 33.7% and 50.9% | 58.6% and 51.6% | 70.5% and 69.1% | 96.1% and 83.1% |  |  |  |  |
| Ovomucin/Protex 6L hydrolysate | 59% and 69% and 49% | 24.9% and 5.1% | 31.4% and 16.3% | 47.8% and 30.5% | 68.5% and 49% | 87.6% and 65% | 90.8% and 65.8% |  |  |  |
| Ovomucin, not hydrolysed and not digested |  |  |  |  |  |  |  | 2.2% | -0.4% | 5.2% |
| Ovalbumin hydrolysate (enzyme of the column not resolvable: PEM, Newlase F or Alcalase) |  | -6.8% and 0% | 0% and 1.6% | 17.4% and 13.4% | 31.1% and 24.6% | 18.2% and 41.3% | 87.8% and 64.4% |  |  |  |
| Egg yolk/PTN hydrolysate |  |  |  | 27.6% and 44.3% |  | 75.7% and 59.9% | 96.9% and 78.1% |  |  |  |
| Ovotransferrin/Protex 6L hydrolysate | 59% and 60% | 13.7% and 12% | 30.6% and 19.1% | 44.4% and 34.4% | 60.2% and 58.6% | 76.8% and 70.2% | 97.3% and 88% |  |  |  |
| Ovomucin/Alcalase hydrolysate | 56% and 57% and 55% | 24% and 22% | 25.5% and 33.2% | 37.1% and 43.8% | 57.3% and 55.2% | 67.2% and 69.9% | 81.7% and 86% |  |  |  |
| EggWhite 1102/Alcalase hydrolysate |  | 18.2% and 2.4% | 36.4% and 16.7% | 43% and 23.3% | 58.8% and 48.1% | 76.9% and 67% | 86.3% and 65.8% |  |  |  |
| Ovotransferrin/Promod 258P hydrolysate | 62% and 58% and 66% | 18.4% and -1% | 40% and 18.8% | 41.1% and 45.1% | 57.7% and 66.3% | 85.2% and 86.2% | 121% and 104% |  |  |  |

Same assay, conditions: not given

| Substance | ACE inhibition (%) at 0.500 mg/ml, Hip-His-Leu/TNBS microtiter assay | inhibition (%) at 2 mg/ml (*Absorption above 3) | ACE activity IC50; total hydrolysis time 11.5 hours (batch for animal study) | ACE inhibition IC50; hydrolysis 4 h, 2% enzyme, DH 0% | ACE inhibition IC50; hydrolysis 5 h, 4% enzyme, DH 5.0% | ACE inhibition IC50; hydrolysis 5 h, 4% enzyme, DH 12.0 | ACE inhibition IC50; hydrolysis 6 h, 4% enzyme, DH 7.7% | ACE inhibition IC50; hydrolysis 7 h, 6% enzyme, DH 12.9% | ACE inhibition IC50; hydrolysis 7.5 h, 6% enzyme, DH 15.0% | ACE inhibition IC50; hydrolysis 8 h, 6% enzyme, DH 21.7 |
| --- | --- | --- | --- | --- | --- | --- | --- | --- | --- | --- |
| Ovotransferrin (TRFE_CHICK), not hydrolysed and not digested (from UniProt P02789 20-705) | -0.3% |  |  |  |  |  |  |  |  |  |
| Ovotransferrin/Newlase F hydrolysate |  | 64.3% and 46.8% |  |  |  |  |  |  |  |  |
| Ovomucin, not hydrolysed and not digested | 2.1% |  |  |  |  |  |  |  |  |  |
| Ovomucin/Alcalase hydrolysate |  |  | 230 µg/mL | > 2000 µg/mL | 760 µg/mL | 540 µg/mL | 660 µg/mL | 450 µg/mL | 430 µg/mL | 390 µg/mL |

Same assay, conditions: not given

| Substance | ACE inhibition IC50; hydrolysis 10.5 h, 8% enzyme, DH 21.2 | ACE inhibition IC50; hydrolysis 10.5 h, 8% enzyme, DH 23.9 | ACE inhibition IC50; hydrolysis 13.5 h, 10% enzyme, DH 22.0 | ACE inhibition IC50; hydrolysis 16.5 h, 12% enzyme, DH 21.1 |
| --- | --- | --- | --- | --- |
| Ovomucin/Alcalase hydrolysate | 250 µg/mL | 210 µg/mL | 180 µg/mL | 180 µg/mL |
